Laboratory results taken from paper PMC8753264.

Tests used:
Assay in all cases: In vitro phosphorylation kinetics with recombinant Akt
Assay type in all cases: biochemical
Settings in all cases: other: recombinant Akt; n = 3
[1] = system: CC(C)[C@H](NC(=O)[C@H](CCC(=O)O)NC(=O)[C@H](CCC(=O)O)NC(=O)[C@@H]1Cc2ccc(O)cc2CN1C(=O)[C@H](CCC(=O)O)NC(=O)[C@H](CC(=O)O)NC(=O)[C@H](CC(=O)O)NC(=O)[C@H](CCC(=O)O)NC(=O)[C@@H](CCCNC(=N)N)NC(=O)[C@@H](CCCNC(=N)N)NC(=O)[C@@H](CCCNC(=N)N)NC(=O)[C@H](C)N(C)C(=O)[C@H](Cc1ccccc1)NC(=O)[C@@H](NC(=O)[C@H](Cc1ccccc1)NC(=O)[C@H](C)NC(=O)[C@H](CCCNC(=N)N)N(C)C(=O)[C@@H]1CCCN1C(=O)[C@H](CCCNC(=N)N)NC(=O)CNC(=O)c1ccc2c(c1)C1(OC2=O)c2ccc(O)cc2Oc2cc(O)ccc21)[C@@H](C)O)C(N)=O
[2] = system: CC(C)[C@H](NC(=O)[C@H](CCC(=O)O)NC(=O)[C@H](CCC(=O)O)NC(=O)[C@H](Cc1ccc(O)cc1)NC(=O)[C@H](CCC(=O)O)NC(=O)[C@H](CC(=O)O)NC(=O)[C@H](CC(=O)O)NC(=O)[C@H](CCC(=O)O)NC(=O)CCCCCNC(=O)[C@H](C)N(C)C(=O)[C@H](Cc1ccccc1)NC(=O)[C@@H](NC(=O)[C@H](Cc1ccccc1)NC(=O)[C@H](C)NC(=O)[C@H](CCCNC(=N)N)N(C)C(=O)[C@@H]1CCCN1C(=O)[C@H](CCCNC(=N)N)NC(=O)CNC(=O)c1ccc2c(c1)C1(OC2=O)c2ccc(O)cc2Oc2cc(O)ccc21)[C@@H](C)O)C(N)=O
[3] = system: CC(C)[C@H](NC(=O)[C@H](CCC(=O)O)NC(=O)[C@H](CCC(=O)O)NC(=O)[C@H](Cc1ccc(O)cc1)NC(=O)[C@H](CCC(=O)O)NC(=O)[C@H](CC(=O)O)NC(=O)[C@H](CC(=O)O)NC(=O)[C@H](CCC(=O)O)NC(=O)[C@@H](CCCNC(=N)N)NC(=O)[C@@H](CCCNC(=N)N)NC(=O)[C@@H](CCCNC(=N)N)NC(=O)[C@H](C)N(C)C(=O)[C@H](Cc1ccccc1)NC(=O)[C@@H](NC(=O)[C@H](Cc1ccccc1)NC(=O)[C@H](C)NC(=O)[C@H](CCCNC(=N)N)N(C)C(=O)[C@@H]1CCCN1C(=O)[C@H](CCCNC(=N)N)NC(=O)CNC(=O)c1ccc2c(c1)C1(OC2=O)c2ccc(O)cc2Oc2cc(O)ccc21)[C@@H](C)O)C(N)=O

recombinant Akt (Homo sapiens) showed a Km [1] of 17 ± 5 µM, a kcat [1] of 0.8 ± 0.1 s⁻¹ and a Km [2] of 28 ± 16 µM. It also gave a kcat [2] of 1.0 ± 0.4 s⁻¹, a Km [3] of 14 ± 3 µM and a kcat [3] of 0.7 ± 0.1 s⁻¹.
